In publication PMC12955825 (Med (New York, N.Y.), 2025):
Bridge positions count the residues as written; N and C are the ends. Ends that are not written are not given here.

What was measured:
Assay in all cases: phage-binding assay
desmin = desmin (human, UniProt P17661 1-470)
[1] = target: peptidyl-prolyl cis-trans isomerase B (human, UniProt P23284 34-216)
[2] = target: BAG family molecular chaperone regulator 3 (human, UniProt O95817 1-575)
annexin A1 = target: T1, annexin A1 (human, UniProt P04083 1-346)
T1 sequence (looked up): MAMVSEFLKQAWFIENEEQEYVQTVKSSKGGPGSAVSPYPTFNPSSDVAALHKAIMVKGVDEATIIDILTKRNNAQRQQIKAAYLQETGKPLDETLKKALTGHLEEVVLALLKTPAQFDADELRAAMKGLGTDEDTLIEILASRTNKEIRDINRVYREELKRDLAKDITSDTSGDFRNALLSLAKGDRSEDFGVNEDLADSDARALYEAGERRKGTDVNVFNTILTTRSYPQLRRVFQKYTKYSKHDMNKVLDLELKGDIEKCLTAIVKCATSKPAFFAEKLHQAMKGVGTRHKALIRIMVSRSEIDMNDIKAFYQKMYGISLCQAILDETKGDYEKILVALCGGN

calumenin = target: T2, calumenin (human, UniProt O43852 20-315)
T2 sequence (looked up): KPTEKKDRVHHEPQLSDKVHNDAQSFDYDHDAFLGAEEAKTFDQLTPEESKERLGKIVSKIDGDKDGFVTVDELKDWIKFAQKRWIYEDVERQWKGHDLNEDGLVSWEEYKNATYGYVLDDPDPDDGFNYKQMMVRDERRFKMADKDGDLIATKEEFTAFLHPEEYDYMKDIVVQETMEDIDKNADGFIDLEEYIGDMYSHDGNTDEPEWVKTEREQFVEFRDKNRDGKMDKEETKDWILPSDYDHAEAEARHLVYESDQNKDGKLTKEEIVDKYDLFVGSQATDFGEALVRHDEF

lactotransferrin = lactotransferrin (human, UniProt P02788 20-710)
[3] = target: heat shock cognate 71 kDa protein (human, UniProt P11142 1-646)
[4] = target: HSP27, human recombinant protein (human, UniProt P04792 1-205)
[5] = target: T3, fructose-bisphosphate aldolase A (human, UniProt P04075 1-364)
T3 sequence (looked up): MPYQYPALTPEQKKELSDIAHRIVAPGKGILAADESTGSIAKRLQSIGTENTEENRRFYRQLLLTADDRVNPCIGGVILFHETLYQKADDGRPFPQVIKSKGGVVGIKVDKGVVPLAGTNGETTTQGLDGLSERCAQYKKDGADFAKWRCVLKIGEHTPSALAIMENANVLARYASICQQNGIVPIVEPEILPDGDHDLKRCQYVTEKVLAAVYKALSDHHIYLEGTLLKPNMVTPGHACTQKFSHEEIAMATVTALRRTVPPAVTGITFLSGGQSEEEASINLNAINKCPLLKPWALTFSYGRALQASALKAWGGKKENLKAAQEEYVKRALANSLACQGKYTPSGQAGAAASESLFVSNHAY

[6] = target: T4, CASQ1, human recombinant protein (human, UniProt P31415 35-396)
T4 sequence (looked up): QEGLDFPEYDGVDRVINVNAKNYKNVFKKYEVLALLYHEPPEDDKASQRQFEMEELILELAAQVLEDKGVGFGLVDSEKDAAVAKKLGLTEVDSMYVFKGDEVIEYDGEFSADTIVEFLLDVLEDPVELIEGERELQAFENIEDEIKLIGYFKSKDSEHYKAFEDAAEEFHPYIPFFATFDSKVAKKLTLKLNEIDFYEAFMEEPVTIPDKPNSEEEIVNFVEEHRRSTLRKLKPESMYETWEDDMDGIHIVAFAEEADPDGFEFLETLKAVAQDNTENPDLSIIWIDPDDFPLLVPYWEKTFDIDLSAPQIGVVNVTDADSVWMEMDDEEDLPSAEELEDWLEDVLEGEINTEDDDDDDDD

[7] = target: T5, thioredoxin-dependent peroxide reductase (mitochondrial) (human, UniProt P30048 62-256)
T5 sequence (looked up): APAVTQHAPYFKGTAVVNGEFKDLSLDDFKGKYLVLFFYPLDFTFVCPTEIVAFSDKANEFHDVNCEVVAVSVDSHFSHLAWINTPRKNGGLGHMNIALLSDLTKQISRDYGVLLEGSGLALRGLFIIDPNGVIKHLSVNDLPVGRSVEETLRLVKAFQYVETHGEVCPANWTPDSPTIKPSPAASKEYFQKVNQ

[8] = target: T6, CRYAB, human recombinant protein (human, UniProt P02511 1-175)
T6 sequence (looked up): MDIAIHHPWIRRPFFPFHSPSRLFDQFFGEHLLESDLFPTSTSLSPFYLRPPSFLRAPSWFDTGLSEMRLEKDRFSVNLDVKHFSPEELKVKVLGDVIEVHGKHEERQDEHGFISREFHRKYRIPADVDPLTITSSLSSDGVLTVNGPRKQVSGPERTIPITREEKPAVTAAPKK

[9] = target: T7, complement component 1 Q subcomponent-binding protein (mitochondrial) (human, UniProt Q07021 74-282)
T7 sequence (looked up): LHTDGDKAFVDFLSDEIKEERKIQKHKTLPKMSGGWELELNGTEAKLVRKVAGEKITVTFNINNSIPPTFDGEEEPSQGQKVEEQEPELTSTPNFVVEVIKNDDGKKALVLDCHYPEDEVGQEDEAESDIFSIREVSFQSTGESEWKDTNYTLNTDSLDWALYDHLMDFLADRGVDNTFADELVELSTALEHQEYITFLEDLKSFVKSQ

[10] = target: 78 kDa glucose-regulated protein (human, UniProt P11021 19-654)
Chain of 78 kDa glucose-regulated protein (P11021 19-654): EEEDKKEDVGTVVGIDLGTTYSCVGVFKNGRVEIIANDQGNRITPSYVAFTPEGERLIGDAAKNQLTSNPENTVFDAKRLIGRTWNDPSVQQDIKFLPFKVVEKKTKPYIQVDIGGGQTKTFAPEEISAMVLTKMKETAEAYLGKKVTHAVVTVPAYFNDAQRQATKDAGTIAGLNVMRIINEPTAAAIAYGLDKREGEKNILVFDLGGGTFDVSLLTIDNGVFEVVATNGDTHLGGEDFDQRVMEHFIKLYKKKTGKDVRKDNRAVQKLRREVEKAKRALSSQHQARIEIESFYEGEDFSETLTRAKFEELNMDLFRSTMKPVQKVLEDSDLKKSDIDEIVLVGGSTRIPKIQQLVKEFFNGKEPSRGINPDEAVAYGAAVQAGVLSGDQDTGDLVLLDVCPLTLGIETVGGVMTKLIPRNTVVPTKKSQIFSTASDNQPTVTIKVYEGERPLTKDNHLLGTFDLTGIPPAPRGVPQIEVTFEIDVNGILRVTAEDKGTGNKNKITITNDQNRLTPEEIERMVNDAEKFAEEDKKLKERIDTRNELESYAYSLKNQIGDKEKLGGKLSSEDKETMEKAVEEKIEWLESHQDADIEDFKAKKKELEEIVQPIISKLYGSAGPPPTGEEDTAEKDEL

Chain of desmin (P17661 whole entry): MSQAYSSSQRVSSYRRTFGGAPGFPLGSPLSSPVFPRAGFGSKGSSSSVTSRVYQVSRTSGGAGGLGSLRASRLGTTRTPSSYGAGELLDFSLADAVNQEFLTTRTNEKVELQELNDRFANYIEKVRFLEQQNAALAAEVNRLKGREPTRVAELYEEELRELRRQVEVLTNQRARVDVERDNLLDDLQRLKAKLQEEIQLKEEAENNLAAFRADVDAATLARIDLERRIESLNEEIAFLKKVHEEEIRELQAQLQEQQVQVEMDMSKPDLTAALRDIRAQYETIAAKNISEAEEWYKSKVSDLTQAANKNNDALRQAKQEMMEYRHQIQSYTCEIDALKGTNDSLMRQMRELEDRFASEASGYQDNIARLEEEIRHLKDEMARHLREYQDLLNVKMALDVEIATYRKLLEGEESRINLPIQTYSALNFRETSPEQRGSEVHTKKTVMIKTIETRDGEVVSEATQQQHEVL
Chain of lactotransferrin (P02788 20-710): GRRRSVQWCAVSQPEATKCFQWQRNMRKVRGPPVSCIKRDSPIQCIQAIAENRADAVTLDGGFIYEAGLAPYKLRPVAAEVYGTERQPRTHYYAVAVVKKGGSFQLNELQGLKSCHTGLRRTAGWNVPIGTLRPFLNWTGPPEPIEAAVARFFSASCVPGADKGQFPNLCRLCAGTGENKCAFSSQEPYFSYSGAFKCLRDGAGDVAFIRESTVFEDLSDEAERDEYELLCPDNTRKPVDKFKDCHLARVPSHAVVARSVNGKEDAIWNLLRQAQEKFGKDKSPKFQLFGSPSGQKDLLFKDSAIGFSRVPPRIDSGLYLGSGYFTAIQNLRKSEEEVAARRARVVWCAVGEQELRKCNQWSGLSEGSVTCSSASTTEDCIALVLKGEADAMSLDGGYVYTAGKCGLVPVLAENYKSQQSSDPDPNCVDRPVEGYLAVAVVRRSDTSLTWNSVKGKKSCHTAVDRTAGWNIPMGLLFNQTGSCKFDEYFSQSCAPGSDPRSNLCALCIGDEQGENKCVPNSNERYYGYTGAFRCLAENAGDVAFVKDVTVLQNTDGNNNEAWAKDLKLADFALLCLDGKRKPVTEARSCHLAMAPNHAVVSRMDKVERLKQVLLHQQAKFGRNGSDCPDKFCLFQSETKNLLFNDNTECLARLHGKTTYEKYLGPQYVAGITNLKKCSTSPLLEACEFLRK
Chain of peptidyl-prolyl cis-trans isomerase B (P23284 34-216): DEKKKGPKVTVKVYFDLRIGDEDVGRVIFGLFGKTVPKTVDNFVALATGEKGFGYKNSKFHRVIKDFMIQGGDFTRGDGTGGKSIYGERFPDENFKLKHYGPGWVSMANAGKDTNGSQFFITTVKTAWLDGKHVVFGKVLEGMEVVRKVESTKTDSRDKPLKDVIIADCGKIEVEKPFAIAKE
Chain of HSP27, human recombinant protein (P04792 whole entry): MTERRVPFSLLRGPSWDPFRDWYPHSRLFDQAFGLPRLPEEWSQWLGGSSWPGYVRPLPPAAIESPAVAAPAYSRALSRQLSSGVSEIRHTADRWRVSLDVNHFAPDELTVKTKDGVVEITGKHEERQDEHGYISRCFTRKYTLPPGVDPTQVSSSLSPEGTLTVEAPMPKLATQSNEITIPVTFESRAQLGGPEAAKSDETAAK
Chain of BAG family molecular chaperone regulator 3 (O95817 whole entry): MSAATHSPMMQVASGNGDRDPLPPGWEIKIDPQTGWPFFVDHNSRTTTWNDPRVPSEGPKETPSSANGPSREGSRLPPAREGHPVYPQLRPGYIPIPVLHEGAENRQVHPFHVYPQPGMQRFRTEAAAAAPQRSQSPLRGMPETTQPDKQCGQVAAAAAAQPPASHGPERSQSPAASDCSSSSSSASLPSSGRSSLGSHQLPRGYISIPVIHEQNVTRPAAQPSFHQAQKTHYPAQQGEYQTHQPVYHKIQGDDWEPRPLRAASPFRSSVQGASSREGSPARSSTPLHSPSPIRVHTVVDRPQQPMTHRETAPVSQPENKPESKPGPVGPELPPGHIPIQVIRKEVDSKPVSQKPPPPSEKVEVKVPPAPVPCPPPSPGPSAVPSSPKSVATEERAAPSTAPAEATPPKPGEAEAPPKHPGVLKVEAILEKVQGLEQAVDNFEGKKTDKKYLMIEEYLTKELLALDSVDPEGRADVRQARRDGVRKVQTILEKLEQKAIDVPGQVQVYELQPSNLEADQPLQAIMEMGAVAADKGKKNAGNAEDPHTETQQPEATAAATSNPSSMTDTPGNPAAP
Chain of heat shock cognate 71 kDa protein (P11142 whole entry): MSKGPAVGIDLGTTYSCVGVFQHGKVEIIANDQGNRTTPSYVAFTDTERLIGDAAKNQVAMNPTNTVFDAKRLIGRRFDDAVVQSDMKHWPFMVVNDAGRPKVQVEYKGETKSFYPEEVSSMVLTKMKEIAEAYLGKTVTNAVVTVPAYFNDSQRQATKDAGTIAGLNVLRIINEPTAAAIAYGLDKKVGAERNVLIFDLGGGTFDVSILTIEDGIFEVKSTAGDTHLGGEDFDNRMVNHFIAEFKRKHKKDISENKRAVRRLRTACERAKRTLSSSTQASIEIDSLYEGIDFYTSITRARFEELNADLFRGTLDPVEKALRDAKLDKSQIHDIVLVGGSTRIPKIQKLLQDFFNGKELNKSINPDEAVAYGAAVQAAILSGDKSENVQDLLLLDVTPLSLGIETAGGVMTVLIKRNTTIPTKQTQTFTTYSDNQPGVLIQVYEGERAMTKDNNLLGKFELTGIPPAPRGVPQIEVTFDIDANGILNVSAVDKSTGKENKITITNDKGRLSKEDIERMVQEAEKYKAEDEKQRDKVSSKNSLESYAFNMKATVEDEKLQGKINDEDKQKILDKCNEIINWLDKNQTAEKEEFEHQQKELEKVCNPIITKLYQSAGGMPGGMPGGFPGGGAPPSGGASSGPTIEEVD

B1: CSRAKGRGAC-displaying phage (peptide)
peptide: CSRAKGRGAC
modifications: disulfide 1-10
Question: Does B1 bind (desmin)?
Answer: Result: binds

B2: CASAVPISC-displaying phage (peptide)
peptide: CASAVPISC
modifications: disulfide 1-9
Question: Does B2 bind [1]?
Answer: Result: binds

B3: CEGKEDMQGC-displaying phage (peptide)
peptide: CEGKEDMQGC
modifications: disulfide 1-10
Question: Does B3 bind [2]?
Answer: Result: binds

B4: CHKPPNFGSC-displaying phage (peptide)
peptide: CHKPPNFGSC
modifications: disulfide 1-10
Question: Does B4 bind (annexin A1)?
Answer: Result: binds

B5: CPTFFAVPC-displaying phage (peptide)
peptide: CPTFFAVPC
modifications: disulfide 1-9
Question: Does B5 bind (calumenin)?
Answer: Result: binds

B6: CGILGPWMAC-displaying phage (peptide)
peptide: CGILGPWMAC
modifications: disulfide 1-10
Question: Does B6 bind (lactotransferrin)?
Answer: Result: binds

B7: CLNVSGRSC-displaying phage (peptide)
peptide: CLNVSGRSC
modifications: disulfide 1-9
Question: Does B7 bind [3]?
Answer: Result: binds

B8: CLVSGRSRC-displaying phage (peptide)
peptide: CLVSGRSRC
modifications: disulfide 1-9
Question: Does B8 bind [4]?
Answer: Result: binds

B9: CKWEGLDMAC-displaying phage (peptide)
peptide: CKWEGLDMAC
modifications: disulfide 1-10; also: displayed on phage
Question: Does B9 bind [5]?
Answer: Result: binds

B10: CLRGFQRVC-displaying phage (peptide)
peptide: CLRGFQRVC
modifications: disulfide 1-9
Question: Does B10 bind [6]?
Answer: Result: binds

B11: CLRGFPALVC-displaying phage (peptide)
peptide: CLRGFPALVC
modifications: disulfide 1-10
Question: Does B11 bind [6]?
Answer: Result: binds

B12: CTESFQKHLC-displaying phage (peptide)
peptide: CTESFQKHLC
modifications: disulfide 1-10
Question: Does B12 bind [7]?
Answer: Result: binds

B13: CRGFVRGSC-displaying phage (peptide)
peptide: CRGFVRGSC
modifications: disulfide 1-9
Question: Does B13 bind [8]?
Answer: Result: binds

B14: CSRGSPDARC-displaying phage (peptide)
peptide: CSRGSPDARC
modifications: disulfide 1-10
Question: Does B14 bind [9]?
Answer: Result: binds

B15: CVLRFFSSC-displaying phage (peptide)
peptide: CVLRFFSSC
modifications: disulfide 1-9
Question: Does B15 bind [10]?
Answer: Result: binds

B16: CRPARVRGAC-displaying phage (peptide)
peptide: CRPARVRGAC
modifications: disulfide 1-10
Question: Does B16 bind [8]?
Answer: Result: binds
